# Data taken from US7262279B2, “Lactoferrin in the treatment of diabetes mellitus” (Agennix, Inc., priority 2003, dated 2007).
# B1: RhLF: Recombinant human lactoferrin, a single chain metal binding glycoprotein; given orally in diluent buffer or topically as 1% gel (protein, UniProt P02788 20-710, looked up)
# Lactotransferrin: GRRRSVQWCAVSQPEATKCFQWQRNMRKVRGPPVSCIKRDSPIQCIQAIAENRADAVTLDGGFIYEAGLAPYKLRPVAAEVYGTERQPRTHYYAVAVVKKGGSFQLNELQGLKSCHTGLRRTAGWNVPIGTLRPFLNWTGPPEPIEAAVARFFSASCVPGADKGQFPNLCRLCAGTGENKCAFSSQEPYFSYSGAFKCLRDGAGDVAFIRESTVFEDLSDEAERDEYELLCPDNTRKPVDKFKDCHLARVPSHAVVARSVNGKEDAIWNLLRQAQEKFGKDKSPKFQLFGSPSGQKDLLFKDSAIGFSRVPPRIDSGLYLGSGYFTAIQNLRKSEEEVAARRARVVWCAVGEQELRKCNQWSGLSEGSVTCSSASTTEDCIALVLKGEADAMSLDGGYVYTAGKCGLVPVLAENYKSQQSSDPDPNCVDRPVEGYLAVAVVRRSDTSLTWNSVKGKKSCHTAVDRTAGWNIPMGLLFNQTGSCKFDEYFSQSCAPGSDPRSNLCALCIGDEQGENKCVPNSNERYYGYTGAFRCLAENAGDVAFVKDVTVLQNTDGNNNEAWAKDLKLADFALLCLDGKRKPVTEARSCHLAMAPNHAVVSRMDKVERLKQVLLHQQAKFGRNGSDCPDKFCLFQSETKNLLFNDNTECLARLHGKTTYEKYLGPQYVAGITNLKKCSTSPLLEACEFLRK
# Key:
# Type in all cases: in vivo
# [1] = system: non-insulin dependent diabetic mellitus (NIDDM) male mice (C57BLK/J-m+/Lepr db); assay: Serum insulin (ELISA) after oral rhLF for 15 days in diabetic mice; settings: 650 and 65 mg/kg orally once daily for 15 days, Day 15 Post, fasted 3 h
# Description: (§1) RhLF (650 and 65 mg/kg) and vehicle/placebo (rhLF diluent buffer pH 7.0) were administered orally once daily for 15 consecutive days to groups of 4 non-insulin dependent diabetic mellitus (NIDDM) male mice. […] All animals were allowed free access to normal laboratory chow and water. Blood samples were withdrawn from the orbital sinus immediately before dosing on day 1 (Day 1 Pre) and 90 minutes after the last administration on day 15 (Day 15 Post). The animals were fasted for 3 hours prior to sampling.
# [2] = system: non-insulin dependent diabetic mellitus (NIDDM) male mice C57BLK/J-m+/Lepr db; assay: Serum glucose after oral rhLF for 15 days in diabetic db/db mice; settings: Day 15 Post (90 min after dosing), fasted 3 h, relative to placebo
# Description: as §1, with “(650 mg/kg” for “(650”, “first” for “last”, “sampling. Serum glucose levels were determined by enzymatic method (mutaratase-GOD). Four animals per cohort were studied. Reduction and p-value (1-tailed) were determined relative to placebo.” for “sampling.”
# [3] = system: non-insulin dependent diabetic mellitus (NIDDM) male mice (C57BLKS/J-m+/+Lepr db); assay: Serum glucose after topical rhLF gel for 20 days in diabetic mice; settings: RhLF gel (1%) topically, 0.2 mg per mouse once per day for 20 days onto a 12 mm punch excision; day 20; with respect to pre-treatment values
# Description: Two groups of 6 non-insulin dependent diabetic mellitus (NIDDM) male mice (C57BLKS/J-m+/+Lepr db) weighing 50+grams and 9-10 weeks old were given either rhLF vehicle (Placebo), or RhLF gel (1%) topically (0.2 mg per mouse/once per day) for 20 days applied directly onto a 12 mm punch excision. Blood samples were obtained from the orbital sinus on day 0 and day 20 at 90 minutes. The animals were fasted for 3 hours prior to sampling. Serum glucose levels were determined by enzymatic method (mutaratase-GOD). Percentage differences were determined with respect to pre-treatment values and analyzed statistically with the unpaired Student' t test. Differences were considered significant at p values of less than 0.05 (FIG. 4).
# [4] = system: non-insulin dependent diabetic mellitus (NIDDM) male mice (C57BLKS/J-m+/+Lepr db); assay: Serum glucose and total body weight after oral rhLF for 20 days in diabetic mice; settings: 65 mg/kg orally via gavage once per day for 20 days
# Description: Five groups of 6 non-insulin dependent diabetic mellitus (NIDDM) male mice (C57BLKS/J-m+/+Lepr db) weighing 50±grams and 9-10 weeks old were given either rhLF vehicle (Placebo), or RhLF (65 mg/kg) orally via gavage for 20 days (once per day) in a volume of 0.13 ml. Blood samples were obtained from the orbital sinus on day 0 and day 20 at 90 minutes following the last administration. Animals were fasted for 3 hours prior to sampling. Serum glucose levels were determined by enzymatic method (mutaratase-GOD). Total body weight measurements were determined on days 0 and 20. Percentage differences were determined with respect to pre-treatment values and analyzed statistically with the unpaired Student' t test. Differences were considered significant at p values of less than 0.05.
molecule,measurement,setting,value
B1,serum insulin levels,[1],increase
same,reduction in serum glucose,[2]; 65 mg/kg orally once daily for 15 days,14.6%
same,reduction in serum glucose,[2]; 650 mg/kg orally once daily for 15 days,19.0%
same,reduction of serum glucose,[3],10.9%
same,reduction in serum glucose,"[4]; day 20, 90 min after last administration, with respect to pre-treatment values",13.8%
same,reduction in body weight,[4]; day 20 vs day 0,7.7%
